Bounds are passed on as bounds.

This is an account of results in US20220177599A1.

The target of test [1] is EpCAM on tumor cells (SK-BR3, Capan-2, HT-29, SNU-638, MKN-45, MDA-MB-231, SW-1990) (human) (UniProt P16422). Kind of test: cell-based or functional assay.
The target of test [2] is Recombinant human EpCAM monomer protein (R&D systems, cat. no. 9277-EP), conjugated with Alexa Fluor 647 (human) (UniProt P16422). In words: flow cytometry saturation binding: CAR-expressing Jurkat T cells stained with serially diluted AF647-conjugated EpCAM, MFI fitted with the one-site nonlinear regression model. A general note: Flow cytometry measures light scatter and fluorescence of single cells or particles in a stream.

For test [3] the target is unchanged. In words: saturation binding by flow cytometry on CAR-expressing Jurkat T cells with Alexa Fluor 647-conjugated EpCAM; reference is C215 CAR.
For test [4] the target is unchanged. In words: saturation binding by flow cytometry: CAR-expressing Jurkat T cells stained with serially diluted Alexa Fluor 647-conjugated EpCAM, one-site nonlinear regression of MFI.
For test [5], the target named is Intercellular adhesion molecule-1 (ICAM-1) on tumor cells (SNU-638, MKN-45) (human) (UniProt P05362). In words: cell-based or functional assay.
Chain of UniProt P05362 (P05362 28-532): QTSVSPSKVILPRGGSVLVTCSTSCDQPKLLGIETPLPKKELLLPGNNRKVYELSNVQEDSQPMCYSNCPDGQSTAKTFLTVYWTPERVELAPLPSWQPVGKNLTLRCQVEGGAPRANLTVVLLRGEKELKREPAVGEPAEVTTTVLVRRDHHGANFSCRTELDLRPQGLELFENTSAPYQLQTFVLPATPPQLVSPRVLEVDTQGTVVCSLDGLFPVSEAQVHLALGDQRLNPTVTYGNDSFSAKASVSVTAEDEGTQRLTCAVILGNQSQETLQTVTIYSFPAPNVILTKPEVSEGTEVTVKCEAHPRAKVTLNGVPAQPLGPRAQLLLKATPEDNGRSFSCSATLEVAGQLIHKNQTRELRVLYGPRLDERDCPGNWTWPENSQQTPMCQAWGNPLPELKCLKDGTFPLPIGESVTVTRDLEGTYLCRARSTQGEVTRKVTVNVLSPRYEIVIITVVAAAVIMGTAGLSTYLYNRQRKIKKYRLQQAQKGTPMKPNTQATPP

Usually Kd stands for the equilibrium constant for the complex coming apart. Regarding “UBS54 CAR (anti-EpCAM chimeric antigen receptor with the scFv of monoclonal antibody UBS-54, CD28-CD3ζ 2nd generation backbone)”, the lysis of SNU-638 and MKN-45 wild-type cells at 48 hours (bioluminescence-based cytotoxicity assay, E:T 1:1) in test [1] stood at 90%. Further, the Kd in test [2] was 253 nM; in test [4] it was 250 nM. For the same molecule, in test [3], the fold difference of KD against C215 CAR is more than 60 fold.
“C215 CAR (anti-EpCAM chimeric antigen receptor with the scFv of mouse monoclonal antibody C215, CD28-CD3ζ 2nd generation backbone)”: the Kd amounted to 3.95 nM in test [2] and 4 nM in test [4].

B1: F292A CAR (ICAM-1 CAR with the LFA-1 αL I domain carrying the F292A mutation, 4-1BB-CD3ζ) (receptor, part only; not given: hinge, transmembrane, signalling domains, tag, not shown: large carriers)
chain, part: VDLVFLFDGSMSLQPDEFQKILDFMKDVMKKLSNTSYQFAAVQFSTSYKTEFDFSDYVKWKDPDALLKHVKHMLLLTNTFGAINYVATEVFREELGARPDATKVLIIITDGEATDSGNIDAAKDIIRYIIGIGKHFQTKESQETLHKFASKPASEFVKILDTAEKLKDLFTELQKKIYVIE
With B1, in test [5], the killing of MKN-45 cells at 48 hours (bioluminescence-based cytotoxicity assay, E:T 1:1) stood at 0 and the specific lysis of SNU-638 cells at 48 hours (bioluminescence-based cytotoxicity assay, E:T 1:1) is 40%.
